What is called Kd is a measure of binding affinity in units of concentration.

Drawing on article PMC11974885 (bioRxiv, 2025), this text covers Kd for one molecule.

This assay has as its target T1, DbfS sensory domain, DbfS^SD-6xHis (Vibrio cholerae, UniProt Q9KRK1 43-171).
T1 sequence: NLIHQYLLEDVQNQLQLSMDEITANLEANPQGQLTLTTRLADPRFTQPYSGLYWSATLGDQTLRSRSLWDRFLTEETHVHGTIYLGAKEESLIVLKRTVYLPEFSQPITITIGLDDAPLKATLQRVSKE
Briefly: MST.

B1: DbfQ (processed, 6xHis tag-cleaved) (natural protein)
chain: DNKVRDWEQGSYREGTQIEIDEDQDDVYRAVQKGLIRPFAELYATVDQQLNGRLIKVELDEDDDEWIYELKLVYDNQVFRVEYNAATLELMSIRGRNVIRAIKK
modifications: Red-NHS dye, amine-reactive, covalent (in the MST experiments only)
Regarding B1, the equilibrium dissociation constant (Kd) came out at 30 nM.
